Read-outs that look alike come from different tables or passages of the source. Non-standard residues stand in square brackets, D forms with d. No end group written: not given here. *: point of attachment. FITC = O=C1OC2(c3ccc(O)cc3Oc3cc(O)ccc32)c2ccc(NC(=S)*)cc21; pS = N[C@@H](COP(=O)(O)O)C(=O)O
Legend:
KIX KIX [1] = molecular target: KIX KIX (UniProt P45481); assay: NMR; details: cited from earlier work
KIX KIX [2] = molecular target: KIX KIX (UniProt P45481); details: cited from earlier work
[3] = molecular target: T1, KIX domain of CREB-binding protein (UniProt P45481 586-665); assay: stopped-flow fluorescence out-competition dissociation kinetics; KIX:FITC-(p)KID complex rapidly mixed with unlabeled cMybTAD; single exponentials; asymptote gives k_diss; 10 C; 100 mM sodium phosphate pH 7.5, 0.05% Tween; details: both partners purified
T1 sequence (P45481 586-665): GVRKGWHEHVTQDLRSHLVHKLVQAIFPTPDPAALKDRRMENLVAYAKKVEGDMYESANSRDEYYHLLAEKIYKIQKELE

[4] = molecular target: T1, KIX domain of CREB-binding protein; assay: fluorescence polarisation; fluorescence anisotropy equilibrium binding; 1 uM FITC-peptide with varying KIX, 30 min, 10 C; 100 mM sodium phosphate pH 7.5, 0.05% Tween; details: both partners purified
[5] = molecular target: T1, KIX domain of CREB-binding protein; assay: stopped-flow fluorescence out-competition dissociation kinetics; KIX:FITC-(p)KID complex rapidly mixed with unlabeled cMybTAD; single exponentials; asymptote gives k_diss; 10 C; 100 mM sodium phosphate pH 7.5, 0.05% Tween; details: both partners purified; remark: listed apart in the source
[6] = molecular target: T1, KIX domain of CREB-binding protein; assay: stopped-flow fluorescence association kinetics; pseudo-first-order, KIX in 10-fold or larger excess over FITC-peptide; double exponential fits; 10 C; 100 mM sodium phosphate pH 7.5, 0.05% Tween; details: both partners purified

Sequence of KIX KIX (P45481 586-665): as above

pKID KID (from UniProt P15337)
Kd (KIX KIX [1]): 1300 nM

pKID29 KID (from UniProt P16220)
Kd (KIX KIX [2]): 8.3 µM

B1: FITC-pKID (phosphorylated KID of CREB, residues 116-146, N-terminus labeled with FITC) (peptide, UniProt P15337-1 116-146, looked up)
peptide: {FITC}-DSVTDSQKRREILSRRP[pS]YRKILNDLSSDAP
notes: kinase inducible domain (KID) of CREB, UniProt P15337, residues 116-146 (31 residues), phosphorylated at S133; source: synthetic peptide, bought: Biomatik
half-life of the complex [3]: ~1 s
Kd [4]: 0.11 µM
koff [5]: 0.81 ± 0.01 s⁻¹
k_ass,fast (fast phase of association) [6]: 7.3 ± 0.3 µM⁻¹ s⁻¹
k_ass,slow (slow phase of association) [6]: 24.2 ± 1.4 s⁻¹

B2: FITC-KID (kinase inducible domain of CREB, residues 116-146, unphosphorylated, N-terminus labeled with FITC) (peptide, UniProt P15337-1 116-146, looked up)
peptide: {FITC}-DSVTDSQKRREILSRRPSYRKILNDLSSDAP
notes: also called unphosphorylated KID; source: synthetic peptide, bought: Biomatik
half-life of the complex [3]: ~0.01 s
Kd [4]: 29 ± 1 µM
koff [5]: 66.3 ± 4.9 s⁻¹
k_ass,fast (fast phase of association) [6]: 7.6 ± 0.8 µM⁻¹ s⁻¹
k_ass,slow (slow phase of association) [6]: 21.2 ± 2.4 s⁻¹

B3: FITC-KID-S133E (KID of CREB, residues 116-146, S133E, N-terminus labeled with FITC) (peptide, UniProt P15337-1 116-146, looked up)
peptide: {FITC}-DSVTDSQKRREILSRRPEYRKILNDLSSDAP
notes: kinase inducible domain (KID) of CREB, UniProt P15337, residues 116-146, with S133E; also called the phosphomimetic; source: synthetic peptide, bought: Biomatik
Kd [4]: 12.3 ± 0.5 µM
koff [5]: 35.6 ± 2.2 s⁻¹
k_ass,fast (fast phase of association) [6]: 4.4 ± 0.2 µM⁻¹ s⁻¹
k_ass,slow (slow phase of association) [6]: 17 ± 1 s⁻¹
